pKd: −log10 of the molar value.

The source of these data is patent publication US20110200585A1.

The target of one test is Mouse FcRn (mouse) (UniProt Q61559). Put plainly: SPR, ProteOn XPR36; antibody amine-coupled to GLM chip, FcRn 8-2048 nM as analyte, equilibrium fit, pH 6.0.
In a further test the target is rat FcRn (rat) (UniProt P13599). The description is as above.
The target in another test is Cyno FcRn (cyno) (UniProt Q8SPV9). Described as above.
Another test addresses Human FcRn (human) (UniProt P55899). The description is as above.
A further test addresses Fcγ3a (Phe) (UniProt P08637). As to the kind of experiment: SPR, ProteOn XPR36; antibody amine-coupled to GLM chip, receptor 8-2048 nM as analyte, equilibrium fit, pH 7.4.
For the next test, the target named is Fcγ2a (Arg) (UniProt P12318). The test is described as above.
Fcγ2a (Arg), sequence (P12318 34-217 H167R): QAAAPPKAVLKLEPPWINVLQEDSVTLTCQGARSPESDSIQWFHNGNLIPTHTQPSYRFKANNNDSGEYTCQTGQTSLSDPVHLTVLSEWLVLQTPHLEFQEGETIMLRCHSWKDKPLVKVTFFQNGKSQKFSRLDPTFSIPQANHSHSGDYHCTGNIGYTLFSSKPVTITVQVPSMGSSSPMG
Another test addresses Fcγ (Val) (UniProt P08637). The description is as above.
The target of the next test is Fcγ1 (UniProt P12314). The description is as above.
Fcγ1, sequence (P12314 16-288): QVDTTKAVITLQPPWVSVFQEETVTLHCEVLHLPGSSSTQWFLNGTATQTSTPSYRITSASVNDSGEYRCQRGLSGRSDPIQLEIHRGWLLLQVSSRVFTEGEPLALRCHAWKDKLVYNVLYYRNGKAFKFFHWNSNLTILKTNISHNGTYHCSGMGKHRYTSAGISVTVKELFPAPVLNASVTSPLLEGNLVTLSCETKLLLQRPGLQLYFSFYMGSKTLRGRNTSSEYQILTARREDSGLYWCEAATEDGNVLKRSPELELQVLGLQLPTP

rat FcRn (rat), sequence (P13599 23-298 limits assumed, form in doubt, chain 1 of 2): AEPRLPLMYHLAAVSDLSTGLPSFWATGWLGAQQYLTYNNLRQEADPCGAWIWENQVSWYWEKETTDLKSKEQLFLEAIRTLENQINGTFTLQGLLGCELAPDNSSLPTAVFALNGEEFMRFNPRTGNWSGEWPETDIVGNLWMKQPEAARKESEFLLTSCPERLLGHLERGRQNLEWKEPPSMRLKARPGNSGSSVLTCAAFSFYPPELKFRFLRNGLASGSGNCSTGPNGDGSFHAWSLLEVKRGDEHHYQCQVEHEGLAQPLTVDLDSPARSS
rat FcRn (rat), sequence (chain, as listed by the source limits assumed, form in doubt, chain 2 of 2): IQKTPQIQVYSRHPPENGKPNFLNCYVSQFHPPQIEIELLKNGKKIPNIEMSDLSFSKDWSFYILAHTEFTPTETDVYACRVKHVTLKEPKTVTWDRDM
Mouse FcRn (mouse), sequence (Q61559 22-297 limits assumed, form in doubt, chain 1 of 2): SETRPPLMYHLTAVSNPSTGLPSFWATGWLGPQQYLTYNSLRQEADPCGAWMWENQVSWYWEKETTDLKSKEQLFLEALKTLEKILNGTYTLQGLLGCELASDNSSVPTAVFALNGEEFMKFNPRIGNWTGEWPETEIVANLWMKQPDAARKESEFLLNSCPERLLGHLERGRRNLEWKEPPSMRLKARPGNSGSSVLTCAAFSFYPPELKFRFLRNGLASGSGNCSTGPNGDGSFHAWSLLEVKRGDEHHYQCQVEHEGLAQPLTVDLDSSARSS
Mouse FcRn (mouse), sequence (chain, as listed by the source limits assumed, form in doubt, chain 2 of 2): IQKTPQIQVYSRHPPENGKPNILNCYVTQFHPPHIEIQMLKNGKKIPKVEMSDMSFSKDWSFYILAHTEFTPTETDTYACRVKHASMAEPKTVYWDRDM
Human FcRn (human), sequence (P55899 24-297 limits assumed, chain 1 of 2): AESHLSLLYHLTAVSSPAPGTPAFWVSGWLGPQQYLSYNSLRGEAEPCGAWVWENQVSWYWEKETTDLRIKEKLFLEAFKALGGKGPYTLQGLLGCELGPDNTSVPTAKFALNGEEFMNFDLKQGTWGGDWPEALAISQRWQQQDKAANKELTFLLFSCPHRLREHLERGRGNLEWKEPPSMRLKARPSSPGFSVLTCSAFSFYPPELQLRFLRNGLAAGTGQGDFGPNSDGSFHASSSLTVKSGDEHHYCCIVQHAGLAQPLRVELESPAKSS
Human FcRn (human), sequence (chain, as listed by the source limits assumed, chain 2 of 2): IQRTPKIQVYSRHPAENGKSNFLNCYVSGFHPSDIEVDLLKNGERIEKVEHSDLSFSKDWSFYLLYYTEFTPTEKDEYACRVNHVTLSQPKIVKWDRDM
Fcγ (Val), sequence (P08637 17-208 F176V): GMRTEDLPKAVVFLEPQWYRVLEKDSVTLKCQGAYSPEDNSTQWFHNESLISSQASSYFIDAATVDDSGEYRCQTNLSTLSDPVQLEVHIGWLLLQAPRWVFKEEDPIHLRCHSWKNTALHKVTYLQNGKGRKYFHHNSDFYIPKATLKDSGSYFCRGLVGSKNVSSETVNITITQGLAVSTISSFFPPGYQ
Fcγ3a (Phe), sequence (P08637 17-208): as the sequence (P08637 17-208 F176V) above, with V160F counted along it

Turning to Control Ab (Fc WT) (antibody), the pKd is 6.80 with Mouse FcRn (mouse); 6.95 in the test with rat FcRn (rat); 6.81 with Cyno FcRn (cyno); 7.02 with Human FcRn (human); 5.74 in the test with Fcγ3a (Phe); 5.89 with Fcγ2a (Arg). The pKd in the test with Fcγ (Val) was 6.35; in the test with Fcγ1, 7.83.

Control Ab (Fc disabled) (antibody): the pKd with Mouse FcRn (mouse) is 6.77; in the test with rat FcRn (rat) it was 6.93; with Cyno FcRn (cyno) it was 6.71; with Human FcRn (human) it was 6.81.
